{"source": "paper PMC10874388", "about": "“Cyclic peptides discriminate BCL-2 and its clinical mutants from BCL-XL by engaging a single-residue discrepancy” (Nature Communications, 2024)", "molecules": {"B1": {"name": "cp3-F (peptide)", "peptide": "CPIRYPWDVECGK(FITC)", "modifications": "linker 1-11 via ADT (ClAc-3) (inferred); reading uncertain; also: modified by ClAc-3, printed as CPIRYPWDVECG{K(FITC)}", "notes": "also called cp3-FITC; source: synthetic peptide"}, "B2": {"name": "cp2 (peptide)", "peptide": "CPIRYEWDEFC-NH2", "modifications": "linker 1-11 via c‑ADT″", "notes": "cyclic peptide from the CPXRYXWDXXC phage library screened against BCL-2; source: synthetic peptide"}, "B3": {"name": "cp3 (peptide)", "peptide": "CPIRYPWDVEC-NH2", "modifications": "linker 1-11 via c‑ADT″", "notes": "cyclic peptide from the CPXRYXWDXXC phage library screened against BCL-XL; source: synthetic peptide"}, "B4": {"name": "cp2-F (peptide)", "peptide": "CPIRYEWDEFCGK(FITC)", "modifications": "linker 1-11 via ADT (ClAc-3) (inferred); reading uncertain; also: modified by ClAc-3, printed as CPIRYEWDEFCG{K(FITC)}", "notes": "also called cp2-FITC; source: synthetic peptide"}}, "key": {"[1]": {"biological_target": "MCL-1 (Homo sapiens, UniProt Q07820)", "sequence (Q07820 152-308)": "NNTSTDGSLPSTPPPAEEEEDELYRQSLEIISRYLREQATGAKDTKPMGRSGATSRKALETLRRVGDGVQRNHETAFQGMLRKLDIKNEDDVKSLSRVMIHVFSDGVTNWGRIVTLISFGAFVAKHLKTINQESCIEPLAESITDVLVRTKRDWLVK", "assay": "SPR binding assay, MCL-1", "settings": "NB = no binding", "from_the_text": "(§1) The DNA fragments encoding human BCL-XL ([…], with […] removed), BCL-w (residues 6–152), MCL-1 (residues 152–308) and BFL-1 (residues 1–151) as previously reported[18] were cloned into a pET-22b vector (Invitrogen), respectively. A chimeric human BCL-2 (including residues 1–50 and 92–207) was constructed, by removing the internal long loop (residues 51–91) and replacing its residues 35–50 with residues 33–48 of BCL-XL to solubilize the protein[14], and then it was cloned into a pET28a-Sumo vector (Invitrogen). All BCL-2 mutants (G101V, F104L, Y103D, D111A) were generated by mutagenic PCR, according to the QuikChange (Stratagene) protocol.\n(§2) SPR assays were performed using a Biacore T200 instrument in running buffer consisting 10 mM PBS, 50 μM EDTA and 0.05% Tween-20 at 25 °C. Biotinylated proteins were immobilized on a CAP sensor chip (Cytiva, 28920234). […] The binding affinities were quantified by the Biacore evaluation software using 1:1 binding model. The reproducibility of the assays was confirmed by performing replicate determinations."}, "[2]": {"biological_target": "T1, BFL-1 (Homo sapiens, UniProt Q16548)", "T1 construct": "BFL-1 (residues 1–151); vector-borne tag of pET-22b (Ni-NTA purification implies a His tag); made in house; host or cells: E. coli BL21 (DE3)", "T1 sequence (Q16548 1-151)": "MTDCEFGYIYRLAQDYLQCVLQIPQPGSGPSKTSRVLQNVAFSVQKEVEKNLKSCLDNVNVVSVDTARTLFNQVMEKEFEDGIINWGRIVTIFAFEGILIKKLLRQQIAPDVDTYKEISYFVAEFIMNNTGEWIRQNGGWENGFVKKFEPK", "assay": "SPR binding assay, BFL-1", "settings": "NB = no binding", "from_the_text": "as §1, §2"}, "[3]": {"biological_target": "T2, BCL-XL (Homo sapiens, UniProt Q07817, DEL27-81)", "T2 construct": "human BCL-XL (residues 1–210, with 27–81 and 210–233 removed); vector-borne tag of pET-22b (Ni-NTA purification implies a His tag); made in house; host or cells: E. coli BL21 (DE3)", "assay": "SPR binding assay, BCL-XL", "settings": "affinity fitting, mean ± SD of three independent experiments, 25 °C", "from_the_text": "as §1, §2"}, "[4]": {"biological_target": "T3, chimeric human BCL-2 (residues 1-50 and 92-207, residues 35-50 replaced with residues 33-48 of BCL-XL) (human, UniProt P10415 1-34; Q07817-1 33-48; P10415 92-207, biotinylated for the SPR assays (sites not given))", "T3 construct": "BCL-2, human, residues 1-34 (residues 35-50 are replaced, see next part); BCL-XL, human, residues 33-48, replacing residues 35-50 of BCL-2; BCL-2, human, residues 92-207 (internal loop 51-91 removed); also called BCL-2 WT; source: E. coli BL21 (DE3), purified (Ni-NTA, Superdex 75, RESOURCE Q, Superdex 200)", "T3 chain (looked up)": "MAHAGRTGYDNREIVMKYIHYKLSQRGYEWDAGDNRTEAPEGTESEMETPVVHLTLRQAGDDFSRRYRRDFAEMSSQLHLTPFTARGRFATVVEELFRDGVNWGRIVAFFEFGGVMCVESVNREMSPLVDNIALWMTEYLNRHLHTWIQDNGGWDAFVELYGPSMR", "assay": "SPR; Biacore T200; biotinylated proteins immobilised on a CAP sensor chip, peptides flowed over at 30 uL/min in multiple cycles; 10 mM PBS, 50 uM EDTA, 0.05% Tween-20, 25 °C; 1:1 binding model", "settings": "both partners purified"}, "[5]": {"biological_target": "T4, human BCL-XL (residues 1-210, with 27-81 and 210-233 removed) (human, UniProt Q07817-1 1-210, 27-81 removed, biotinylated for the SPR assays (sites not given))", "T4 construct": "BCL-XL, human, residues 1-210 with the loop 27-81 removed; source: E. coli BL21 (DE3), purified (Ni-NTA, Superdex 75, RESOURCE Q, Superdex 200)", "T4 sequence (Q07817 other isoform, or with tags, fused parts or gaps 27-81 removed | 27-81 removed)": "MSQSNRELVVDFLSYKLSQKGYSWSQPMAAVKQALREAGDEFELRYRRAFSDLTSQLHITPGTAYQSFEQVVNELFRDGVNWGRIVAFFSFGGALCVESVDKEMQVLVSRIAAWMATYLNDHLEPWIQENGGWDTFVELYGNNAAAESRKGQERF", "assay": "SPR; Biacore T200; biotinylated proteins immobilised on a CAP sensor chip, peptides flowed over at 30 uL/min in multiple cycles; 10 mM PBS, 50 uM EDTA, 0.05% Tween-20, 25 °C; 1:1 binding model", "settings": "both partners purified"}, "[6]": {"biological_target": "T3, chimeric human BCL-2 (residues 1-50 and …)", "assay": "fluorescence polarisation; direct binding: 20 nM FITC-labelled peptide, protein from 60 nM to 1000 nM; 1x PBS pH 7.4, room temperature, 10 min", "settings": "both partners purified"}, "[7]": {"biological_target": "T4, human BCL-XL (residues 1-210, with …)", "assay": "fluorescence polarisation; direct binding: 20 nM FITC-labelled peptide, protein from 60 nM to 1000 nM; 1x PBS pH 7.4, room temperature, 10 min", "settings": "both partners purified"}, "[8]": {"biological_target": "T3, chimeric human BCL-2 (residues 1-50 and …)", "assay": "fluorescence polarisation; competition: cp2-F/BCL-2 complexes (20/400 nM) or cp3-F/BCL-XL complexes (20/600 nM) treated with unlabelled peptides from 1.0 nM to 30.0 uM; 1x PBS pH 7.4, room temperature, 10 min; Ki calculated from EC50, one-site competitive model", "settings": "both partners purified"}, "[9]": {"biological_target": "T4, human BCL-XL (residues 1-210, with …)", "assay": "fluorescence polarisation; competition: cp2-F/BCL-2 complexes (20/400 nM) or cp3-F/BCL-XL complexes (20/600 nM) treated with unlabelled peptides from 1.0 nM to 30.0 uM; 1x PBS pH 7.4, room temperature, 10 min; Ki calculated from EC50, one-site competitive model", "settings": "both partners purified"}}, "note": "Starred links: 1 amine or outer side, 2 acyl side, 3 side chain; linkers in the order of their positions; H or OH if unused. Positions of bridges follow the written chain, without caps; N, C: chain ends. Residues, ends and D or L forms follow the SMILES beside them. Primed or numbered codes have the meaning given here. No end group written: not given here. *: point of attachment. X1 = O=C(C[*:2])NCCNC(=O)c1ccc(C2=N[C@H](C(=O)[*:1])CS2)cc1; FITC = O=C1OC2(c3ccc(O)cc3Oc3cc(O)ccc32)c2ccc(NC(=S)*)cc21; c‑ADT″ = 2-aryl-4,5-dihydrothiazole linker; ADT (ClAc-3) = not defined here; c‑ADT = not defined here"}
{"molecule": "CC[C@H](C)[C@@H]1NC(=O)[C@@H]2CCCN2C(=O)[C@@H]2CSC(=N2)c2ccc(cc2)C(=O)NCCNC(=O)CSC[C@@H](C(N)=O)NC(=O)[C@H](Cc2ccccc2)NC(=O)[C@H](CCC(=O)O)NC(=O)[C@H](CC(=O)O)NC(=O)[C@H](Cc2c[nH]c3ccccc23)NC(=O)[C@H](CCC(=O)O)NC(=O)[C@H](Cc2ccc(O)cc2)NC(=O)[C@H](CCCNC(=N)N)NC1=O", "note": "[cp2] (PIRYEWDEFC-NH2; linker N-10 via X1)", "values": [{"measurement": "Kd", "setting": "[1]", "result": "> 12800", "unit": "nM"}, {"measurement": "Kd", "setting": "[2]", "result": "> 12800", "unit": "nM"}]}
{"molecule": "CC[C@H](C)[C@@H]1NC(=O)[C@@H]2CCCN2C(=O)[C@@H]2CSC(=N2)c2ccc(cc2)C(=O)NCCNC(=O)CSC[C@@H](C(N)=O)NC(=O)[C@H](CCC(=O)O)NC(=O)[C@H](C(C)C)NC(=O)[C@H](CC(=O)O)NC(=O)[C@H](Cc2c[nH]c3ccccc23)NC(=O)[C@@H]2CCCN2C(=O)[C@H](Cc2ccc(O)cc2)NC(=O)[C@H](CCCNC(=N)N)NC1=O", "note": "[cp3] (PIRYPWDVEC-NH2; linker N-10 via X1)", "values": [{"measurement": "Kd", "setting": "[1]", "result": "> 12800", "unit": "nM"}, {"measurement": "Kd", "setting": "[2]", "result": "> 12800", "unit": "nM"}]}
{"molecule": "C[C@@H]1NC(=O)[C@@H]2CCCN2C(=O)[C@@H]2CSC(=N2)c2ccc(cc2)C(=O)NCCNC(=O)CSC[C@@H](C(=O)NCC(=O)N[C@@H](CO)C(=O)NCC(=O)N[C@@H](CO)C(=O)N[C@@H](CCCNC(=N)N)C(=O)N[C@@H](CCCCN)C(=O)N[C@@H](CCCCN)C(=O)N[C@@H](CCCNC(=N)N)C(=O)N[C@@H](CCCNC(=N)N)C(=O)N[C@@H](CCC(N)=O)C(=O)N[C@@H](CCCNC(=N)N)C(=O)N[C@@H](CCCNC(=N)N)C(=O)N[C@@H](CCCNC(=N)N)C(=O)N[C@@H](CCC(=O)O)C(=O)N[C@@H](CCC(=O)O)C(=O)N[C@@H](CCC(=O)O)C(=O)N[C@@H](CCC(=O)O)C(=O)N[C@@H](CCC(=O)O)C(=O)N[C@@H](CCC(=O)O)C(=O)N[C@@H](CCC(=O)O)C(=O)N[C@@H](CCC(=O)O)C(N)=O)NC(=O)[C@H](CCC(=O)O)NC(=O)[C@H](Cc2ccc(O)cc2)NC(=O)[C@H](CC(=O)O)NC(=O)[C@H](Cc2c[nH]c3ccccc23)NC(=O)CNC(=O)[C@H](Cc2ccc(O)cc2)NC(=O)[C@H](CCCNC(=N)N)NC1=O", "note": "[cp1-TAT-8E] (PARYGWDYECGSGSRKKRRQRRREEEEEEEE-NH2; linker N-10 via X1)", "values": [{"measurement": "Kd", "setting": "[3]", "result": "1170 ± 70", "unit": "nM"}]}
{"molecule": "CPIRYEWDEFCGSGSRKKRRQRRREEEEEEEE (linker 1-11 via c‑ADT; reading uncertain, source: synthetic peptide)", "note": "[cp2-TAT-8E]", "values": [{"measurement": "Kd", "setting": "[4]", "result": "140 ± 50", "unit": "nM"}, {"measurement": "Kd", "setting": "[5]", "result": "130 ± 9", "unit": "nM"}]}
{"molecule": "CPIRYPWDVECGSGSRKKRRQRRREEEEEEEE (linker 1-11 via c‑ADT; reading uncertain, source: synthetic peptide)", "note": "[cp3-TAT-8E]", "values": [{"measurement": "Kd", "setting": "[4]", "result": "70 ± 10", "unit": "nM"}, {"measurement": "Kd", "setting": "[5]", "result": "20 ± 1", "unit": "nM"}]}
{"molecule": "B1", "values": [{"measurement": "Kd", "setting": "[6]", "result": 177, "unit": "nM"}, {"measurement": "Kd", "setting": "[7]", "result": 270, "unit": "nM"}]}
{"molecule": "B2", "values": [{"measurement": "Ki", "setting": "[8]", "result": 22.5, "unit": "nM"}, {"measurement": "Ki", "setting": "[9]", "result": 682, "unit": "nM"}]}
{"molecule": "B3", "values": [{"measurement": "Ki", "setting": "[8]", "result": 152, "unit": "nM"}, {"measurement": "Ki", "setting": "[9]", "result": 333, "unit": "nM"}]}
{"molecule": "B4", "values": [{"measurement": "Kd", "setting": "[6]", "result": 97.2, "unit": "nM"}, {"measurement": "Kd", "setting": "[7]", "result": 810, "unit": "nM"}]}
